B1: CLCN6 (parent)
chain: MAGCRGSLCCCCRWCCCCGERETR
B2: ETS1 (parent)
chain: YVRDRADLNKDKPVIPAAALAGYT

Variants of: B1
Test: protein stability index of a GFP-peptide fusion (GPS, HEK-293T) (PSI 1-6); higher = more stable
Conditions: c terminus: a fixed tail appended
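Further: lentivirally expressed fusions sorted by FACS into six bins by GFP to DsRed ratio, PSI derived from sequencing read proportions per bin multiplied by bin number.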

Protein stability index of substitutions, site by site:
M1: C 1.98; D 1.78; S 1.56; H 2.14; N 1.56; Q 1.65; G 1.86; L 1.39; K 2.14; E 1.22; A 1.91; P 2.12
G3: R 2.1; F 2.11; N 1.5; W 1.9; P 1.27; K 1.52; Q 1.31; V 1.15; E 2.09; I 1.44; Y 2.37; D 1.8; M 1.99
R5: Q 2.33; I 1.92; G 1.49; F 2.41; W 1.98; C 2.33; A 1.98; P 1.29; D 1.38; M 1.38; E 1.34; K 3.21; Y 3.45; T 1.44
G6: N 1.72; E 2.38; D 2.36; F 1.92; M 1.41; L 1.32; H 1.86; A 1.83; I 2.06
C4: L 2.74; A 1.84; I 1.61; Y 2.12; H 2.07; E 2.58; W 1.79; G 1.45; R 2.33; S 1.69; D 2.24; F 2.4; K 2.35
A2: M 1.73; Y 1.98; L 1.33; E 2.77; P 1.37; Q 1.74; G 2.1; H 2.81; V 1.46; F 2.2; I 2.07; K 2.68; D 2

Variants of: B2
Test: as above
Conditions: c terminus: a fixed tail appended

Protein stability index, by site and new letter:
G22: N 2.15; I 2.29; H 1.63; C 2.39; P 2.01; K 2.18; Y 1.69; E 1.77; T 2.05; L 1.85; S 1.66; Q 2.12; W 2.55; V 2.74; R 1.69; A 2.8; F 2.21; M 1.63; D 2.53
V14: I 1.63; E 1.97; N 2.34; K 2.34; W 2.4; Y 1.8; R 2.67; Q 1.4; A 1.73; G 2.18; T 2.66; H 2.23; P 1.92; F 2.99; C 2.54; S 2.84; L 2.79; D 2.17; M 2.75
P16: C 2.57; K 2.13; A 3.14; G 1.93; S 1.64; E 2.05; N 2.33; V 2.44; Q 2.37; D 2.54; M 2.56; W 2.19; I 2.23; F 3.22; H 2.1; L 2.52; R 3.04; T 2.14; Y 2.98
L20: M 2.45; F 2.8; S 1.82; Y 3.18; Q 2.79; I 2.04; H 1.89; C 2.48; K 1.48; D 1.55; N 1.94; A 2.06; V 2.02; P 2.41; W 3.22; T 2.12; R 2.35; E 1.81; G 2.02
K12: A 2.39; P 1.95; G 2.17; E 1.79; T 2.02; F 2.1; C 2.13; R 2.08; W 2.43; L 2.47; D 2.04; M 1.9; Q 2.48; H 2.29; V 2.47; N 2.29; S 2.48; I 2.19; Y 1.94
D11: H 3.35; S 2.9; N 2.91; Q 2.78; L 4.14; M 2.31; Y 2.59; P 3.65; F 2.42; V 3.03; G 3.03; W 2.56; E 2.5; R 2.17; K 1.77; T 2.16; I 2.08
P13: T 2.4; V 2.77; M 1.95; G 2.23; N 2.46; H 2.36; K 2.4; L 2.82; F 2.85; Y 2.59; D 1.63; R 3.04; E 1.74; W 2.13; Q 1.63; A 1.53; C 1.8; S 1.62; I 1.88
A17: T 2.11; I 2.52; D 1.41; F 1.76; N 1.64; G 3.1; K 1.98; Y 2.86; W 3.98; H 2.15; P 1.79; E 2.19; Q 1.87; L 2.04; V 1.63; C 2.97; M 1.38; S 2.25
I15: A 2.8; C 2.84; N 3.26; M 2.7; Y 1.95; T 1.91; G 2.09; V 1.56; P 2.63; W 2.77; D 1.93; Q 2.57; S 2.36; K 2.26; F 1.8; E 1.77; L 2.16; R 1.86; H 2.29
Y23: L 2.58; W 2.5; G 1.73; M 1.89; A 2.15; S 1.52; V 2.13; C 2.51; I 2.53; R 1.89; D 1.91; Q 1.86; N 2.34; P 1.47; F 2.21; T 2.26; H 2.18; K 1.46; E 2.3
A18: S 2.73; E 1.88; Q 2.84; C 2.33; T 1.93; V 1.09; F 1.83; K 2.63; N 2.22; R 1.93; H 2.18; L 2.88; G 2.35; I 3.08; Y 2.19; D 2.21; P 3.01; W 2.53
A19: R 2.53; M 1.63; V 3.93; S 1.86; Q 2.84; C 1.86; Y 2.13; L 1.55; W 2.98; G 2.62; H 1.75; E 1.91; I 2.14; F 3.59; K 2.9; N 2.17; P 2.04; T 2.17; D 2.07
A21: H 2.06; R 2.07; E 2.1; F 3.51; W 2.75; T 2.52; K 2.08; I 2.42; V 2.38; N 2.14; G 1.63; Y 2.74; Q 1.95; S 2.53; P 1.65; M 1.45; L 3.03; D 2.4
T24: L 2.7; H 3.26; I 2.37; P 2.77; C 2.47; W 4.5; M 2.67; A 2.37; Y 2.11; Q 2.69; D 1.45; R 2.1; F 1.84; K 2.81; S 1.98; G 1.69; E 2.08; V 1.74
